According to publication PMC3518024:

Molecular target: T1, AaNusB (Aquifex aeolicus, UniProt O66530 1-148)
T1 sequence: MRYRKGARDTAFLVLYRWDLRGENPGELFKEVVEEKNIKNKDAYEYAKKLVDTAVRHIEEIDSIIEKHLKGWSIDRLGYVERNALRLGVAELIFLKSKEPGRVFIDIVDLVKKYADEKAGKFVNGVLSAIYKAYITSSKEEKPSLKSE
Experiment: X-ray crystallography

B1: AaBoxA 12-mer RNA self-duplex (supercoil-forming) (dsRNA)
RNA 1: GGCUCCUUGGCA
RNA 2: GGCUCCUUGGCA
binding result: binds
